The source of these data is US8710017B2, “Human and mouse targeting peptides identified by phage display” (priority 2000, dated 2014).

Bridge positions count the residues as written; N and C are the ends. Ends that are not written are not given here.

In test [1] the target is T1, β5 integrin cytoplasmic domain (Homo sapiens, UniProt P18084).
T1 construct: the screenings involving the β5 cytoplasmic domain fusion protein
T1 sequence (P18084 743-799 limits assumed): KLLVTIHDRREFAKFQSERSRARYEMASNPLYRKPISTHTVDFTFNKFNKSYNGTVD
The test is described as follows: Phage binding to immobilized GST-β5cyto. The following applies: for β5/GST Ratio: colonies from β5-GST wells divided by GST. The method, then: FIG. 10. Binding of β5 cytoplasmic domain-selected phage to immobilized proteins. GST fusion proteins or GST alone were coated on microtiter wells at 10 μg/ml and used to bind phage expressing endostatin binding peptides. […] The data represent the mean colony counts from triplicate wells, with standard error less than 10% of the mean.
β3 and β5 cytoplasmic domain-binding peptides were isolated by screening multiple phage libraries with recombinant GST fusion proteins that contained either GST-β3cyto or GST-β5cyto coated onto microtiter wells. Immobilized GST was used as a negative control for enrichment during the panning of each cytoplasmic domain. Phage were sequenced from randomly selected clones after three rounds of panning as disclosed elsewhere (Koivunen et al., 1995; Pasqualini et al., 1995). Distinct sequences were isolated that interacted specifically with the β3 or with the β5 cytoplasmic domains (Table 9). Randomly selected clones from panning rounds II and III were sequenced. Amino acid sequences of the phagemid encoded peptides were deduced from nucleotide sequences. The ratios were calculated by dividing the number of colonies recovered from β3-GST-coated wells and those recovered from GST or BSA.
A similar strategy was used to determine the specificity of the phage isolated in the screenings involving the β5 cytoplasmic domain fusion protein.
To determine whether the binding of the selected motifs was specific for each cytoplasmic domain, binding assays were performed comparing the interaction of individual phage motifs with β1, β3, or β5 cytoplasmic domain fusion proteins. […] Both the β3- and β5-selected phage selectively interacted with the proteins on which they were originally selected, with average binding selectivities observed of β3/β1=3.9, β3/β5=3.7, β5/β1=4.8, and β5/β3=6.9 (not shown). The average selectivity for integrin cytoplasmic domains versus BSA was about one to two orders of magnitude (not shown). None of the phage tested seemed to bind strongly to the β1 cytoplasmic domain (not shown).

Test [2] concerns the target T2, APA (SK-RC-49/APA cells) (Homo sapiens, UniProt Q07075).
T2 construct: The renal carcinoma cell line SK-RC-49 was transfected with an expression vector encoding full-length APA cDNA; expressed in transfected cells; host or cells: SK-RC-49 renal carcinoma cells, stably transfected (G418)
Kind of test: Phage binding specificity assay on SK-RC-49/APA cells. The format is cell-based. The settings on record: for displacement of phage binding by CPRECESIC peptide: data not shown. The method, then: The cell binding assay was performed with an input of 10^9 TU as described for the cell panning. The specificity was confirmed by adding […] (SEQ ID NO:123) peptide to the binding medium in increasing concentrations. For phage binding on immunocaptured APA, wells were blocked for 1 h at room temperature with PBS/3% BSA and incubated with 10^9 TU for 1 h at room temperature in 50 μl PBS/3% BSA. After eight washes in PBS/1% BSA/0.01% Tween-20 and two washes in PBS, phage were rescued by adding 200 μl of exponentially growing K91Kan E. coli. Each experiment was repeated at least three times.

Test [3] has as its target T2, APA (SK-RC-49/APA cells). Kind of test: Cell panning of CX3CX3CX3C phage library on SK-RC-49/APA cells (insert frequency). The format is cell-based. The settings on record: for Round 2 (%): share of 18 randomly selected phage inserts. The method, then:
A CX3CX3CX3C(C, cysteine; X, any amino acid) library was prepared (Rajotte et al., 1998). […] Cells were detached by incubation with 2.5 mM EDTA in PBS, washed once in binding medium (DMEM high glucose supplemented with 20 mM HEPES and 2% FCS), and resuspended in the same medium at a concentration of 2×10^6 cells/ml. 10^10 TU of phage were added to 500 μl of the cell suspension, and the mixture was incubated overnight (first round) or for 2 h (successive rounds) at 4° C. with gentle rotation. Cells were washed five times in binding medium at room temperature and resuspended in 100 μl of the same medium. Phage were rescued by adding 1 ml of exponentially growing K91Kan Escherichia coli bacteria and incubating the mixture for 1 h at room temperature. Bacteria were diluted in 10 ml of LB medium supplemented with 0.2 μg/ml tetracycline and incubated for another 20 min at room temperature. Serial dilutions were plated on LB plates containing 40 μg/ml tetracycline, and plates were incubated at 37° C. overnight before colonies were counted.
The CX3CX3CX3C phage library (10^10 transducing units [TU]) was preadsorbed on parental SK-RC-49 cells to decrease nonspecific binding. […] SK-RC-49/APA-bound phage were amplified and used for two consecutive rounds of selection.

Test [4] relates to MDA-MB-435-derived tumor xenografts. Kind of test: In vivo tumor homing of APA-binding phage. Further details: species or system mouse. The settings on record: 10^9 TU iv, 5 min circulation, FIG. 22. As for the experimental part: MDA-MB-435-derived tumor xenografts were established in female nude mice 2 months old (Jackson Labs, Bar Harbor, Me.). Mice were anesthetized with Avertin and injected intravenously through the tail vein with 10^9 TU of the phage in a 200 μl volume of DMEM. The phage were allowed to circulate for 5 min, and the animals were perfused through the heart with 5 ml of DMEM. The tumor and brain were dissected from each mouse, weighed, and equal amounts of tissue were homogenized. The tissue homogenates were washed three times with ice-cold DMEM containing a proteinase inhibitor cocktail and 0.1% BSA. Bound phage were rescued and counted as described for cell panning. Fd-tet phage was injected at the same input as a control. The experiment was repeated twice. In parallel, part of the same tissue samples were fixed in Bouin solution, and imbedded in paraffin for preparation of tissue sections. An antibody to M-13 phage (Amersham-Pharmacia) was used for the staining.

The test system of test [5] is HUVECs. The test is described as follows: HUVEC chemotaxis assay (Boyden chamber, VEGF-A). The following applies: 1 mM, VEGF-A 10 ng/ml, 5 h, FIG. 24. The format is cell-based, human. As for the experimental part:
FIG. 24. […] (SEQ ID NO:123) inhibits HUVEC migration. HUVECs were stimulated with VEGF-A (10 ng/ml). The assay was performed in a Boyden microchemotaxis chamber, and cells were allowed to migrate through an 8-μm pore filter for 5 h at 37° C. […] (SEQ ID NO:124) (control) and […] (SEQ ID NO:123) peptides were tested at 1 mM concentration. Migrated cells were stained and five high-power fields (magnitude 100×) for each microwell were counted. Error bars are the standard error of the means of triplicate microwells.
A cell migration assay was performed in a 48-well microchemotaxis chamber (NeuroProbe, Gaithersburg, Md.) according to Bussolini et al. (1995). Polyvinylpyrrolidone-free polycarbonate filters (Nucleopore, Cambridge, Mass.) with 8-μm pores were coated with 1% gelatin for 10 min at room temperature and equilibrated in M199 medium supplemented with 2% FCS. […] (SEQ ID NO:123) or control […] (SEQ ID NO:124) peptide (1 mM) was placed in the lower compartment of a Boyden chamber in M199 medium supplemented with 2% FCS and 10 ng/ml VEGF-A (R&D System). Subconfluent cultures that had been starved overnight were harvested in PBS containing 2.5 mM EDTA, washed once in PBS, and resuspended in M199 medium containing 2% FCS at a final concentration of 2×10^6 cells/ml. After the filter was placed between the lower and upper chambers, 50 μl of the cell suspension was seeded in the upper compartment, and cells were allowed to migrate for 5 h at 37° C. in a humidified atmosphere with 5% CO2. The filter was then removed, and cells on the upper side were scraped with a rubber policeman. Migrated cells were fixed in methanol and stained with Giemsa solution (Diff-Quick, Baxter Diagnostics, Rome, Italy). Five random high-power fields (magnitude 100×) were counted in each well. Each assay was run in triplicate.

In test [6] the test system is chicken chorioallantoic membrane (CAM). Kind of test: CAM assay for angiogenesis. The format is in vivo. The following applies: control peptide, 1 mM, not shown. As for the experimental part: In vivo angiogenesis was evaluated by a CAM assay (Ribatti et al., 1994). Fertilized eggs from White Leghorn chickens were maintained in constant humidity at 37° C. On the third day of incubation, a square window was opened in the eggshell and 2-3 ml of albumen was removed to detach the developing CAM from the shell. The window was sealed with a glass plate of the same size and the eggs were returned to the incubator. At day 8, 1 mm^3 sterilized gelatin sponges (Gelfoam, Upjohn Co, Kalamazoo, Milan) were adsorbed with VEGF-A (20 ng, R&D System) and either […] (SEQ ID NO:123) or control […] (SEQ ID NO:124) peptide (1 mM) in 3 μl PBS and implanted on the top of the growing CAMs under sterile conditions. CAMs were examined daily until day 12 and photographed in ovo with a Leica stereomicroscope. Capillaries emerging from the sponge were counted. The assay was repeated twice.

Test [7] concerns HUVECs. The test is described as follows: Three-dimensional Matrigel culture of HUVECs (capillary-like network). The format is cell-based, human. The settings on record: 1 mM, 24 h, not shown. As for the experimental part: Matrigel (Collaborative Research, Bedford, Mass.) was added at 100 μl per well to 48-well tissue culture plates and allowed to solidify for 10 min at 37° C. HUVECs were starved for 24 h in M199 medium supplemented with 2% FCS before being harvested in PBS containing 2.5 mM EDTA. 10^4 cells were gently added to each of the triplicate wells and allowed to adhere to the gel coating for 30 min at 37° C. Then, medium was replaced with indicated concentrations of […] (SEQ ID NO:123) or […] (SEQ ID NO:124) peptides in complete medium. The plates were photographed after 24 h with an inverted microscope (Canon). The assay was repeated three times.

The test system of test [8] is HUVECs. Kind of test: HUVEC cell growth assay (crystal violet, VEGF-A). The format is cell-based, human. The settings on record: 1 mM, VEGF-A 10 ng/ml, FIG. 25. As for the experimental part: FIG. 25. […] (SEQ ID NO:123) inhibits HUVEC proliferation. Cells were stimulated with VEGF-A (10 ng/ml), and growth was evaluated at the indicated times by a colorimetric assay based on crystal violet staining. Error bars are the standard error of the means of triplicate wells. Each experiment was repeated at least twice with similar results.
HUVECs were seeded in 48-well plates (10^4 cells/well) and allowed to attach for 24 h in complete M199 medium. The cells were then starved in M199 medium containing 2% FCS for 24 h. […] (SEQ ID NO:123) or control […] (SEQ ID NO:124) peptide (1 mM) was added to the wells in medium containing 2% FCS and 10 ng/ml VEGF-A (R&D System, Abingdom, UK). After incubation for the indicated times, cells were fixed in 2.5% glutaraldehyde, stained with 0.1% crystal violet in 20% methanol, and solubilized in 10% acetic acid. All treatments were done in triplicate. Cell growth was evaluated by measuring the O.D. at 590 nm in a microplate reader (Biorad, Hercules, Calif.). A calibration curve was established and a linear correlation between O.D. and cell counts was observed between 10^3 and 10^5 cells.

T2 sequence (Q07075 whole entry): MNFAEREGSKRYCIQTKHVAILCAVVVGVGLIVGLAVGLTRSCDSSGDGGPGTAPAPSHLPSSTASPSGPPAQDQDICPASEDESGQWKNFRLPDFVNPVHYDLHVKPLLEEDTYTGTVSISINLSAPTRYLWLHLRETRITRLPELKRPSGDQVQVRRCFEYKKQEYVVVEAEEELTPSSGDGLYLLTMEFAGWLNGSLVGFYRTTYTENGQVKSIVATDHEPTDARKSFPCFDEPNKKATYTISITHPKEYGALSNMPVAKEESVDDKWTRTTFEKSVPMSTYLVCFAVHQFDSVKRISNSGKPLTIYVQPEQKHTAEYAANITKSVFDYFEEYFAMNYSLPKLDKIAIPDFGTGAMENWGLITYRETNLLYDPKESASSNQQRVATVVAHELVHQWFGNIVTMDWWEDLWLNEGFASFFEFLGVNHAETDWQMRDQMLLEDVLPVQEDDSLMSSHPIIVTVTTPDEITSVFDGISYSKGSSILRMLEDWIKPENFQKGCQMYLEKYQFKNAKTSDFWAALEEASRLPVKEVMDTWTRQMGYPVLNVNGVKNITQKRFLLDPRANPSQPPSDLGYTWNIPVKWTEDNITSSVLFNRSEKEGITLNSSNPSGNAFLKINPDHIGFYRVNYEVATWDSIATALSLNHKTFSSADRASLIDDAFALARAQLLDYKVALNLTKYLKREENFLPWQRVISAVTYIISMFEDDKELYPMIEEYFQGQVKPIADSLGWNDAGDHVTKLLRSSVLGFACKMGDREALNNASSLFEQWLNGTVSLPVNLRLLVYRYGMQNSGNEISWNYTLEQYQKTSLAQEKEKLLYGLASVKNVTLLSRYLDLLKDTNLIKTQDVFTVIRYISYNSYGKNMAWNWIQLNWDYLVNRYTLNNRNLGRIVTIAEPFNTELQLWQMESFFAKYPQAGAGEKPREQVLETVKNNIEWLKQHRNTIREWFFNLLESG

In the case of CKLWQEDGY, the “β5/GST Ratio” value in test [1] was found to be 1.8.

Regarding CLGQCASICVNDC, in the test with APA (SK-RC-49/APA cells) [2], the “displacement of phage binding by CPRECESIC peptide” value is on record as “not affected”. The “Round 2 (%)” value in the test with APA (SK-RC-49/APA cells) [3] came to 5%. Also, in test [4], the “enrichment in tumor xenografts compared to brain tissue” value (from here on “enrichment … compared to brain tissue”) was “Neither CYNLCIRECESICGADGACWTWCADGCSRSC (SEQ ID NO:125) nor CLGQCASICVNDC (SEQ ID NO:126) phage showed any tumor-homing preference”.

In the case of CPKVCPRECESNC, the “Round 2 (%)” value with APA (SK-RC-49/APA cells) [3] is 5%. The “enrichment … compared to brain tissue” value in test [4] worked out at 4 fold.

For the sequence CYNLCIRECESICGADGACWTWCADGCSRSC, the “displacement of phage binding by CPRECESIC peptide” value with APA (SK-RC-49/APA cells) [2] was “displaced”. For the same sequence, in the test with APA (SK-RC-49/APA cells) [3], the “Round 2 (%)” value was 50%. Also, the “Round 3 (%)” value with APA (SK-RC-49/APA cells) [3] (share of phage inserts, round 3) is recorded as 100%. Besides, the “enrichment … compared to brain tissue” value in test [4] was “Neither CYNLCIRECESICGADGACWTWCADGCSRSC (SEQ ID NO:125) nor CLGQCASICVNDC (SEQ ID NO:126) phage showed any tumor-homing preference”.

Consider DWFSYYEL, for which, in test [1] (colonies from β5-GST wells divided by BSA), the “β5/BSA Ratio” value amounted to 153. In test [1], the “β5/GST Ratio” value is on record as 1.7.

Regarding “GACVRLSACGA (disulfide 3-9 (inferred)) [unrelated cyclic control peptide, reference compound]”, in the test on HUVECs [5], the “inhibition of chemotaxis of HUVECs” value is “no significant effect”. Moreover, the “competition with CPKVCPRECESNC phage for binding to SK-RC-49/APA cells” value with APA (SK-RC-49/APA cells) [2] (soluble peptide in binding medium, not shown) was “no competitive activity”. Moreover, the “effect on the number of growing vessels” value in test [6] is “no effect”. In addition, the “HUVEC morphogenesis / capillary-like network” value in the test on HUVECs [7] is reported as “did not affect HUVEC morphogenesis”. Also, the “inhibition of HUVEC proliferation” value in the test on HUVECs [8] is given as “no significant effect”.
